# Source: patent publication US12458630 (University of California, dated 2025)
# Where a chain is given by its changes, count along the chain named. Numbers in names are those of the source.
# B1: endogenous VAMP8 of MIA PaCa-2 cells (other, human, UniProt Q9BV40 1-100, looked up)
# chain: MEEASEGGGNDRVRNLQSEVEGVKNIMTQNVERILARGENLEHLRNKTEDLEATSEHFKTTSQKVARKFWWKNVKMIVLICVIVFIIILFIVLFATGAFS
# B2: IKKα W651A-Flag (LIR-mutated IKKα) (enzyme)
# chain: MERPPGLRPGAGGPWEMRERLGTGGFGNVCLYQHRELDLKIAIKSCRLELSTKNRERWCHEIQIMKKLNHANVVKACDVPEELNILIHDVPLLAMEYCSGGDLRKLLNKPENCCGLKESQILSLLSDIGSGIRYLHENKIIHRDLKPENIVLQDVGGKIIHKIIDLGYAKDVDQGSLCTSFVGTLQYLAPELFENKPYTATVDYWSFGTMVFECIAGYRPFLHHLQPFTWHEKIKKKDPKCIFACEEMSGEVRFSSHLPQPNSLCSLVVEPMENWLQLMLNWDPQQRGGPVDLTLKQPRCFVLMDHILNLKIVHILNMTSAKIISFLLPPDESLHSLQSRIERETGINTGSQELLSETGISLDPRKPASQCVLDGVRGCDSYMVYLFDKSKTVYEGPFASRSLSDCVNYIVQDSKIQLPIIQLRKVWAEAVHYVSGLKEDYSRLFQGQRAAMLSLLRYNANLTKMKNTLISASQQLKAKLEFFHKSIQLDLERYSEQMTYGISSEKMLKAWKEMEEKAIHYAEVGVIGYLEDQIMSLHAEIMELQKSPYGRRQGDLMESLEQRAIDLYKQLKHRPSDHSYSDSTEMVKIIVHTVQSQDRVLKELFGHLSKLLGCKQKIIDLLPKVEVALSNIKEADNTVMFMQGKRQKEIAHLLKIACTQSSARSLVGSSLEGAVTPQTSAWLPPTSAEHDHSLSCVVTPQDGETSAQMIEENLNCLGHLSTIIHEANEEQGNSMMNLDWSWLTE
# notes: also called LIR-mutated IKKα variant; pCDH-CMV-MCS-EF1-Puro-IKKα W651A-Flag; not shown: Flag tag
# B3: endogenous syntaxin 17 (STX17) of MIA PaCa-2 cells (other, human, UniProt P56962 2-302, looked up)
# chain: SEDEEKVKLRRLEPAIQKFIKIVIPTDLERLRKHQINIEKYQRCRIWDKLHEEHINAGRTVQQLRSNIREIEKLCLKVRKDDLVLLKRMIDPVKEEASAATAEFLQLHLESVEELKKQFNDEETLLQPPLTRSMTVGGAFHTTEAEASSQSLTQIYALPEIPQDQNAAESWETLEADLIELSQLVTDFSLLVNSQQEKIDSIADHVNSAAVNVEEGTKNLGKAAKYKLAALPVAGALIGGMVGGPIGLLAGFKVAGIAAALGGGVLGFTGGKLIQRKKQKMMEKLTSSCPDLPSQTDKKCS
# notes: also called endogenous STX17
# B4: IKKα Y568A-Flag (LIR-mutated IKKα) (enzyme)
# chain: B2 chain with Y568A, A651W
# notes: also called LIR-mutated IKKα variant; pCDH-CMV-MCS-EF1-Puro-IKKα Y568A-Flag; not shown: Flag tag
# Experiments:
# [1] = molecular target: B3; assay: co-IP with STX17, IKKα-ablated MIA PaCa-2 cells re-expressing wt IKKα (FIG. 14D)
# [2] = molecular target: endogenous LC3 (microtubule-associated protein light chain 3) of MIA PaCa-2 cells (human, UniProt Q9GZQ8 1-120); assay: co-IP in starved IKKα-ablated MIA PaCa-2 cells (FIG. 14C)
# [3] = molecular target: B2; assay: as above
# [4] = molecular target: B4; assay: as above
binder,measurement,setting,value
B1,binding result,[1],binds
B2,binding result,[2],no binding
B3,binding result,[3],no binding
same,binding result,[4],no binding
B4,binding result,[2],no binding
